These results are taken from patent US20200277376A1 (SUZHOU STAINWEI BIOTECH, published 2020).

In experiment [1] the target is recombination human PD-1 extracellular protein (Sino Biological Inc.) (human) (UniProt Q15116). Nature of the experiment: competitive ELISA, plate coated with human PD-1 protein; competitor biotin-hAb21. Background: ELISA stands for enzyme-linked immunosorbent assay.
The target of experiment [2] is T1, human PD-1 on cells (CHO cells stably expressing human PD-1) (human, UniProt Q15116 25-288).
T1 construct: whole, on cells; also called CHO/PD-1; CHO-PD-1
T1 sequence (Q15116 25-288): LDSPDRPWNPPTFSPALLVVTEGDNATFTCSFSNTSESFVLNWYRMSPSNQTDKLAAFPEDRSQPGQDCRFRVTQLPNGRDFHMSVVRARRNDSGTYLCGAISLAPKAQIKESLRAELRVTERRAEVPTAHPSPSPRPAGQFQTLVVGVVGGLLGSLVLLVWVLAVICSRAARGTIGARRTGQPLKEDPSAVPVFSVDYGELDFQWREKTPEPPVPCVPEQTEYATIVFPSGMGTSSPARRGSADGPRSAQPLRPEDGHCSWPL
Description: flow cytometry on CHO/PD-1 cells. For orientation: Flow cytometry measures light scatter and fluorescence of single cells or particles in a stream.

Chain of recombination human PD-1 extracellular protein (Sino Biological Inc.) (human) (Q15116 25-170): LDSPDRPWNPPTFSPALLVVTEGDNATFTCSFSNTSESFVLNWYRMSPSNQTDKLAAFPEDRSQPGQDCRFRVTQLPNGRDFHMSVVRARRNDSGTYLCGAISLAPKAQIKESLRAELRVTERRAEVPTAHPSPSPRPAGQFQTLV

With “MK3475+Nivo (Nivolumab and MK3475 added together)”, the antagonizing/inhibiting ratio in experiment [1] was found to be 70%.

B1: human PDL2-Fc fusion protein (Fc fusion, UniProt Q9BQ51 20-219, looked up, not shown: a dimerising Fc or GST)
chain: LFTVTVPKELYIIEHGSNVTLECNFDTGSHVNLGAITASLQKVENDTSPHRERATLLEEQLPLGKASFHIPQVQVRDEGQYQCIIIYGVAWDYKYLTLKVKASYRKINTHILKVPETDEVELTCQATGYPLAEVSWPNVSVPANTSHSRTPEGLYQVTSVLRLKPPPGRNFSCVFWNTHVRELTLASIDLQSQMEPRTHP
notes: also called biotin-PDL2-Fc; Biotin-PDL2Fc
In the case of B1, in experiment [2], the binding result is reported as “binds”.
